How the values were obtained:
[1] = target: T1, human c-Met/Fc fusion protein (R&D Systems) (human, UniProt P08581 25-932); experiment: ELISA, human c-Met/Fc coated at 2 ug/mL, hybridoma culture supernatant
T1 construct: Bought reagent; also called human c-Met/Fc protein; not shown: Fc part of the bought fusion
Protocol: Human c-Met/Fc fusion protein was seeded in an amount of 50 μL (2 μg/mL)/well to microtiter plates and allowed to adhere to the surface of each well. The antibody that remained unbound was removed by washing.
The hybridoma cell culture obtained in Reference Example 1.1.2 was added in an amount of 50 μL to each well of the plates and incubated for 1 hour. The cells remaining unreacted were washed out with a sufficient amount of Tris-buffered saline and Tween 20 (TBST). Goat anti-mouse IgG-horseradish peroxidase (HRP) was added to the plates and incubated for 1 hour at room temperature. The plates were washed with a sufficient amount of TBST, followed by reacting the peroxidase with a substrate (OPD). Absorbance at 450 nm was measured on an ELISA reader.

EGFR (R&D Systems) = target: T2, EGFR (R&D Systems) (UniProt P00533 25-645, limits assumed); experiment: SPR, Biacore T100
T2 construct: also called epidermal growth factor receptor

T1 sequence (P08581 25-932 limits assumed): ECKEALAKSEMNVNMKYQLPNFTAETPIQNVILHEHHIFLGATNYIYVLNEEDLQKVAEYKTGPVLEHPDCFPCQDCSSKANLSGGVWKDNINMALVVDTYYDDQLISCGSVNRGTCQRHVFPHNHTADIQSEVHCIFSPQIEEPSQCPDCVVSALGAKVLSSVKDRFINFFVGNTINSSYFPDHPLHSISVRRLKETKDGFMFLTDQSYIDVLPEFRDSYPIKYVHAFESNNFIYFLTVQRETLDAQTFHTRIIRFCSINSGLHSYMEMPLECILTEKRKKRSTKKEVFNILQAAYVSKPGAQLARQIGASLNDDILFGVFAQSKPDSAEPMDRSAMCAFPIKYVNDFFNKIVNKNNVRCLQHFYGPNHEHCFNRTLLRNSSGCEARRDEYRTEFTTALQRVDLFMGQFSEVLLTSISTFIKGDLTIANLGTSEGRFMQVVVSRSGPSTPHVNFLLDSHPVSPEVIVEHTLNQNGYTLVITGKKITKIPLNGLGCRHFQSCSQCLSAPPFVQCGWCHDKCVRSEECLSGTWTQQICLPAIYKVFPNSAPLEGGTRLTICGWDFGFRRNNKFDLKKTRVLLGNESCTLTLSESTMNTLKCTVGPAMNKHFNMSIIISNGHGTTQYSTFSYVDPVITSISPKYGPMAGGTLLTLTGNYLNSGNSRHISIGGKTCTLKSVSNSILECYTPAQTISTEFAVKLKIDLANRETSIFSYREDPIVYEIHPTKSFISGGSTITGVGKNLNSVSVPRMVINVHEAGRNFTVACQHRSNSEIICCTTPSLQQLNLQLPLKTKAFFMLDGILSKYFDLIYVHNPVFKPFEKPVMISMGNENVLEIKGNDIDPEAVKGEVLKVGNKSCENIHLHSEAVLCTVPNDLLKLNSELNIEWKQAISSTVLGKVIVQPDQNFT

Binder	binding result [1]	Kd (EGFR (R&D Systems)) [nM]
AbF46, mouse monoclonal antibody to c-Met (antibody, V domains shown, Screened as hybridoma culture supernatant; also called monoclonal antibody of hybridoma KCLRF-BP-00220) VH: EVKLVESGGGLVQPGGSLRLSCATSGFTFTDYYMSWVRQPPGKALEWLGFIRNKANGYTTEYSASVKGRFTISRDNSQSILYLQMDTLRAEDSATYYCARDNWFAYWGQGTLVTVSA VL: DILMTQSPSSLTVSAGEKVTMSCKSSQSLLASGNQNNYLAWHQQKPGRSPKMLIIWASTRVSGVPDRFIGSGSGTDFTLTINSVQAEDLAVYYCQQSYSAPLTFGAGTKLELK	binds	
ME-19, bispecific anti-c-Met/anti-EGFR antibody (anti-c-Met antibody L3-1Y / anti-EGFR DARPin conjugate) (bispecific antibody, human IgG2, kappa, also called c-Met/EGFR bsAb) heavy: EVQLVESGGGLVQPGGSLRLSCAASGFTFTDYYMSWVRQAPGKGLEWLGFIRNKANGYTTEYSASVKGRFTISRDNSKNTLYLQMNSLRAEDTAVYYCARDNWFAYWGQGTLVTVSSASTKGPSVFPLAPCSRSTSESTAALGCLVKDYFPEPVTVSWNSGALTSGVHTFPAVLQSSGLYSLSSVVTVPSSNFGTQTYTCNVDHKPSNTKVDKTVERKCCVECPPCPAPPVAGPSVFLFPPKPKDTLMISRTPEVTCVVVDVSHEDPEVQFNWYVDGVEVHNAKTKPREEQFNSTFRVVSVLTVVHQDWLNGKEYKCKVSNKGLPAPIEKTISKTKGQPREPQVYTLPPSREEMTKNQVSLTCLVKGFYPSDIAVEWESNGQPENNYKTTPPMLDSDGSFFLYSKLTVDKSRWQQGNVFSCSVMHEALHNHYTQKSLSLSPGKGGGGSGGGGSDLGKKLLEAARAGQDDEVRILMANGADVNADDTWGWTPLHLAAYQGHLEIVEVLLKNGADVNAYDYIGWTPLHLAADGHLEIVEVLLKNGADVNASDYIGDTPLHLAAHNGHLEIVEVLLKHGADVNAQDKFGKTAFDISIDNGNEDLAEILQ light: DIQMTQSPSSLSASVGDRVTITCKSSQSLLASGNQNNYLAWYQQKPGKAPKMLIIWASTRVSGVPSRFSGSGSGTDFTLTISSLQPEDFATYYCQQSYSRPYTFGQGTKVEIKRTVAAPSVFIFPPSDEQLKSGTASVVCLLNNFYPREAKVQWKVDNALQSGNSQESVTEQDSKDSTYSLSSTLTLSKADYEKHKVYACEVTHQGLSSPVTKSFNRGEC		~0.35
